Measured values taken from US20020155503.

Tests used:
[1] = test system: Asp-Tyr-Glu-Glu-Val
[2] = test system: Asp-Glu-Glu-Tyr-Asp
[3] = test system: Asp-Glu-Tyr-Glu-Asp
[4] = test system: Tyr-Ser-Ile-Ile-Nle
[5] = test system: Asp-Glu-Glu-Asp-Tyr

recombinant form of the human Syk enzyme
phosphorylation of library peptide, anti-phosphotyrosine ELISA (absorbance at 450 nm); preferred substrate of the sub-set [1]: Library Sub-Set 4 Asp-Tyr-Glu-Glu-Val [SEQ ID No. 14]
phosphorylation of library peptide, anti-phosphotyrosine ELISA (absorbance at 450 nm); preferred substrate of the sub-set [2]: Library Sub-Set 2 Asp-Glu-Glu-Tyr-Asp [SEQ ID No. 12]
phosphorylation of library peptide, anti-phosphotyrosine ELISA (absorbance at 450 nm); preferred substrate of the sub-set [3]: Library Sub-Set 3Asp-Glu-Tyr-Glu-Asp [SEQ ID No. 13]
phosphorylation of library peptide, anti-phosphotyrosine ELISA (absorbance at 450 nm); preferred substrate of the sub-set [4]: Library Sub-Set 5 Tyr-Ser-Ile-Ile-Nle [SEQ ID No. 15]
phosphorylation of library peptide, anti-phosphotyrosine ELISA (absorbance at 450 nm); preferred substrate of the sub-set [5]: Library Sub-Set 1 Asp-Glu-Glu-Asp-Tyr [SEQ ID No. 11]
